Measured values reported in US9950027.
Numbering of substitutions follows the chain as printed. Values belong to the binder of their own block, whether it stands above or below them. Side-chain parts run from the residue outwards. [ ]: non-standard residue; d: D form.

How the values were obtained:
Experiment in all cases: cell-based or functional assay
[1] = target: recombinant human type 2 Formyl peptide receptor (FPR2) (human) (UniProt P25090)
[2] = target: human GLP-1 receptor (human) (UniProt P43220)
Sequence of human GLP-1 receptor (human) (P43220 24-463): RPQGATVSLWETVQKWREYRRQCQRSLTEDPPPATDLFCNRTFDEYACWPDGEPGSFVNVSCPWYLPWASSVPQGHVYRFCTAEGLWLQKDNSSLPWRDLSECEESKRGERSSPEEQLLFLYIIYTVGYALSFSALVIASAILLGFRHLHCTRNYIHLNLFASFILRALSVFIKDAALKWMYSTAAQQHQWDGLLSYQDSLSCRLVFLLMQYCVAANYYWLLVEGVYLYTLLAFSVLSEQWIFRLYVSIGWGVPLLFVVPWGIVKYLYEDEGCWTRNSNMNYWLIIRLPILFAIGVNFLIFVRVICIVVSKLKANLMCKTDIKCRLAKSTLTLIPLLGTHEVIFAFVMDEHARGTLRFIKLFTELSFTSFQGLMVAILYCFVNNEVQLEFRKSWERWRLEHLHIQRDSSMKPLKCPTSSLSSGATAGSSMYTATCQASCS

[3] = target: human GLP-2 receptor (human) (UniProt O95838)
Sequence of human GLP-2 receptor (human) (O95838 whole entry): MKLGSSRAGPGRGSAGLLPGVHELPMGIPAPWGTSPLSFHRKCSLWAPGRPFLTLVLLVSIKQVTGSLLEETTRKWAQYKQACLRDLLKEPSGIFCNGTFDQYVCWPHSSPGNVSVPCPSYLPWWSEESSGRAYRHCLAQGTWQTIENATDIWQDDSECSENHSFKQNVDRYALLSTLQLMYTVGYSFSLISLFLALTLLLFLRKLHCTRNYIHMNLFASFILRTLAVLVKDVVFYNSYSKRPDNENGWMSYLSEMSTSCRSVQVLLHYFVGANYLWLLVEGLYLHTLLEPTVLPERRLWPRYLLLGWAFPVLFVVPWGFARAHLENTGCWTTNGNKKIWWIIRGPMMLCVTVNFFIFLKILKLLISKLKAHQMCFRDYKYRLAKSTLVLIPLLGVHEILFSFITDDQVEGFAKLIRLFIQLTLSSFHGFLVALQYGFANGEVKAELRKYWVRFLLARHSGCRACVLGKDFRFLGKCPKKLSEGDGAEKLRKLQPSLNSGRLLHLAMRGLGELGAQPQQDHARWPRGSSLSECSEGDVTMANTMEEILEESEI

Sequence of recombinant human type 2 Formyl peptide receptor (FPR2) (human) (P25090 whole entry): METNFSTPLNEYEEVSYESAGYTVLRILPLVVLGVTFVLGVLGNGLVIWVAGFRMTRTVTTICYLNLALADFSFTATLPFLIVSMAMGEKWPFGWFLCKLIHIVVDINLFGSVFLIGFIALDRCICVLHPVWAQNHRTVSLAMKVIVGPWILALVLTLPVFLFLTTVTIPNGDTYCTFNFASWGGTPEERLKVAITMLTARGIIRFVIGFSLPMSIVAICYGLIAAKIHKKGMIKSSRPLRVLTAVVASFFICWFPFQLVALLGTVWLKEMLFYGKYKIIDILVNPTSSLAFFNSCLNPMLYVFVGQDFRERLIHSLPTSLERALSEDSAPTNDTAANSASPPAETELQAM

EC50 (nM), cAMP production (HTRF) [3]: 3.4 nM
Max efficacy in % of control peptide (cAMP production, HTRF) (% of control peptide) [3]: 101
B1: Analogue 3 (Example 4, BAP-modified GLP-2 analogue): … (peptide)
peptide: HADGSFSDEMNTILDNLAARDFINWLIQTKITDK
modifications: N-terminal acetyl; Lys-Lys-Ac attached to the epsilon-amino group of the C-terminal Lys34; C-terminal amide

EC50 (nM), cAMP production (HTRF) [3]: 5.9 nM
Max efficacy in % of control peptide (cAMP production, HTRF) (% of control peptide) [3]: 102
B2: Analogue 4 (Example 4, BAP-modified GLP-2 analogue): … (peptide)
peptide: B1 peptide with A2G
modifications: N-terminal acetyl; Lys-Lys-Ac attached to the epsilon-amino group of the C-terminal Lys34; C-terminal amide

EC50 (nM), cAMP production (HTRF) [3]: 8.9 nM
Max efficacy in % of control peptide (cAMP production, HTRF) (% of control peptide) [3]: 95.1
B3: Analogue 5 (Example 4, BAP-modified GLP-2 analogue): … (peptide)
peptide: B1 peptide
modifications: N-terminal acetyl; D-Ala at position 2; Lys-Lys-Ac attached to the epsilon-amino group of the C-terminal Lys34; C-terminal amide

Further lines, the binder ahead of its results:

Binder: Ac-AMVSEFLKQ[dA]WFIENEEQEYVQTVKKK([Lys-Ac])-NH2 [Analogue 6 (Example 4, BAP-modified AnxA1 N-terminal fragment): …]
agonist activity, % of the max response of Trp-Lys-Tyr-Met-Val-Met (SEQ ID NO: 114) [1]: 33%

Binder: Ac-HGEGTFTSDVSSYLEGQAAKEFIAWLVKGRGK([Lys-Lys-Ac])-NH2 [Analogue 2 (Example 4, BAP-modified GLP-1 analogue): …]
EC50 (nM), cAMP production (HTRF) [2]: 0.04 nM
Max efficacy in % of control peptide (cAMP production, HTRF) (% of control peptide) [2]: 102
